Data as given in US20180188195A1, “SYSTEMS AND METHODS FOR MULTIPLEXED HEMOSTASIS TEST PANELS” (T2 Biosystems, Inc., priority 2015, published 2018).

B1: abciximab (antibody, chains of the INN, looked up, V domains shown)
VH: EVQLQQSGTVLARPGASVKMSCEASGYTFTNYWMHWVKQRPGQGLEWIGAIYPGNSDTSYIQKFKGKAKLTAVTSTTSVYMELSSLTNEDSAVYYCTLYDGYYVFAYWGQGTLVTVSA
VL: EIVLTQSPVTLSVTPGDSVSLSCRASRDISNNLHWFQQTSHESPRLLIKYASQSMSGIPSRFSGSGSGTDFTLSINSVETEDFGMYFCQQTNSWPYTFGGGTKLEIK
modifications: Fab
B2: tPA: tissue plasminogen activator (tPA, Alteplase, Genentech), inducer of fibrinolysis (protein, UniProt P00750 36-562, looked up)
Tissue-type plasminogen …: SYQVICRDEKTQMIYQQHQSWLRPVLRSNRVEYCWCNSGRAQCHSVPVKSCSEPRCFNGGTCQQALYFSDFVCQCPEGFAGKCCEIDTRATCYEDQGISYRGTWSTAESGAECTNWNSSALAQKPYSGRRPDAIRLGLGNHNYCRNPDRDSKPWCYVFKAGKYSSEFCSTPACSEGNSDCYFGNGSAYRGTHSLTESGASCLPWNSMILIGKVYTAQNPSAQALGLGKHNYCRNPDGDAKPWCHVLKNRRLTWEYCDVPSCSTCGLRQYSQPQFRIKGGLFADIASHPWQAAIFAKHRRSPGERFLCGGILISSCWILSAAHCFQERFPPHHLTVILGRTYRVVPGEEEQKFEVEKYIVHKEFDDDTYDNDIALLQLKSDSSRCAQESSVVRTVCLPPADLQLPDWTECELSGYGKHEALSPFYSERLKEAHVRLYPSSRCTSQHLLNRTVTDNMLCAGDTRSGGPQANLHDACQGDSGGPLVCLNDGRMTLVGIISWGLGCGQKDVPGVYTKVTNYLDWIRDNMRP
modifications: alteplase

Experiments:
Assay type in all cases: cell-based, human
[1] = tested on: citrated blood; assay: Thromboelastography maximum amplitude (TEG MA) on the same abciximab-treated samples; conditions: abciximab 4 or 8 μg/ml added ex vivo; 3 healthy donors
Description: (§1) The DiffT2 value was calculated by taking the difference between the upper and middle T2 values in the T2MR signature at a time point 13 minutes after activation. Data are shown here using samples from 3 healthy donors where clot strength was adjusted by ex vivo addition of abciximab (ReoPro) at a level of 0, 4, or 8 μg/ml prior to measurement. All samples containing abciximab were at DiffT2 values of <100 ms or TEG MA values less than 40.
(§2) A 0.5 mg/ml solution of abciximab was prepared by diluting the stock 10 mg/5 ml solution by 1:4 in saline. The abciximab-treated blood samples were incubated for at least 5 min prior to clotting. Clotting was initiated by adding 2 μL 0.2 M CaCl2 and 2 μL TEG kaolin to 34 μL of abciximab-treated blood sample. To compare the T2MR signal to TEG MA, a DiffT2 parameter was calculated by taking the difference in T2 between the upper and middle peaks at a time point 13 min after adding calcium and kaolin. The TEG MA values were measured on the same samples following manufacturer instructions.
(§3) For comparison between T2MR and TEG, calcium and kaolin activation of citrated blood was used and normal donor samples were treated with various amounts of abciximab, an inhibitor of the platelet glycoprotein αIIbβ3 receptor that binds fibrin and is essential for clot contraction.

[2] = tested on: citrated blood; assay: T2MR clot strength (DiffT2), calcium and kaolin activation of abciximab-treated citrated blood; conditions: abciximab 4 or 8 μg/ml added ex vivo; 13 minutes after activation; 3 healthy donors
Description: as §1, §2, §3

[3] = tested on: citrated whole blood; assay: T2In intrinsic assay for platelet activity, ReoPro titration
Description: Citrated whole blood from normal donors was spiked with varying concentrations of the platelet inhibitor ReoPro (Abcixirnab). 5 μL of ellagic acid solution with CaCl2 was used to activate 36.7 μL of blood with or without ReoPro inhibition. T2MR data was collected for 35 minutes. Addition of platelet inhibitor had no effect on T2MR measured clot time or % deltaT2. […] There was some donor to donor differences in responsiveness to ReoPro.

[4] = tested on: citrated whole blood; assay: T2In platelet activity and fibrinolysis measurement with tPA or aprotinin; conditions: ellagic acid with CaCl2; tPA 0, 2 or 4 nM or aprotinin control; 65 min
Description: The T2Ex or the T2In protocols were also used with the addition of aprotinin (T2Ex-A and T2In-A) respectively. For the intrinsic pathway measurement (T2In), intrinsic activator solution was prepared by mixing ellagic acid stock and CaCl2. For the intrinsic pathway measurement that includes aprotinin (T2In-A), add 41.7 μL of a 1 mg/mL stock of aprotinin to 1 mL intrinsic activator solution. 36.7 μL citrated whole blood that had been warmed to approximately 37° C. for three minutes was added and mixed. 5 μL of intrinsic activator solution with aprotinin that had been warmed to approximately 37° C. for one minute was added. The sample was mixed and read in the T2reader. The clotting time measurement was obtained after 5 minutes and then the platelet activity and fibrinolysis measurements were obtained over the following 60 minutes. In a separate assay the effects of the amounts of activator were tested.
Platelet activity and fibrinolysis measurements for the 3 donor samples in the T2In assay are shown in FIG. 15a-15b. tPA levels of 0 nM, 2 nM or 4 nM were added to citrated whole blood. Blood samples (36.7 μL) were activated by addition of 5 μL ellagic acid solution with CaCl2. T2MR data was collected for 65 min. The addition of tPA cleaves the fibrin mesh of the clot and results in clot dissolution over time. This is detected by T2MR by the change in T2 value of the serum peak (third phase). […]

[5] = tested on: citrated whole blood; assay: T2In T2MR clotting time, intrinsic pathway activator (ellagic acid); conditions: T2In, 3 donors, different tPA concentrations, with or without aprotinin
Description: In another embodiment a coagulopathy panel is used with an intrinsic activator such as ellagic acid. The common range of clotting time is often between 100 and 120 seconds for normal blood. However, it can be 22-30 seconds, 30-44 seconds, 44-60 seconds, 60-80 seconds, 80-100 seconds, up to 2 times to 4 times the range of normal T2MR clotting times for the extrinsic activator. The abnormal clotting time ranges are above or below the normal range. The total range easily measured is 8-300 seconds though a measurement up to or beyond 1000 seconds could be performed with modified acquisition. If aprotinin is added in addition to intrinsic activator, clotting times can often be from 110.9-151.0 seconds in normal blood.
The general intrinsic activator protocol is as follows (T2In panel): an intrinsic activator solution was prepared by mixing tissue factor reagent with CaCl2. To 36.7 μL of citrated whole blood (warmed to approximately 37° C. for 3 minutes and mixed) was added 5 μL of the intrinsic activator solution (also been warmed to approximately 37° C. for one minute). The resulting solution was mixed and subjected to T2 measurements for 50 minutes. […] The T2MR of the sample was measured for 30 minutes.
The T2Ex or the T2In protocols were also used with the addition of aprotinin (T2Ex-A and T2In-A) respectively. […] The sample was mixed and read in the T2reader. […]

[6] = tested on: re-calcified citrated whole blood; assay: T2MR fibrinolysis of thrombin-clotted re-calcified citrated blood after tPA addition
Description: In one embodiment, blood clotting was initiated by addition of 2 μL of a 0.2 M CaCl2 solution and 2 μL of thrombin (Sigma-Aldrich, St. Louis, Mo., final concentration 0.1-3.0 U/ml) to 34 μL of blood in a 200 μL PCR tube (Eppendorf, Hauppauge, N.Y.). All components were pre-warmed for 1 min at 37° C. before mixing. Samples were mixed by three aspiration and dispersion cycles using a pipette, then put into the T2MR reader for measurement. Typical run length was 30 min with a 10 sec sampling rate. For some experiments, data collection time was extended to 1 hr.
To establish T2MR signatures for fibrinolysis, tissue plasminogen activator (tPA, Alteplase, Genentech, South San Francisco, Calif.) was added to samples clotted by thrombin. Blood clotting was initiated as described above, and the sample was incubated for […] to allow for complete clot contraction. Then, 0.5-1 μM tPA was added to clotted and contracted samples. Care was taken not to disturb clots, which were usually attached to the tube wall. The pipette tip was carefully placed into the visible serum layer on the tube side opposite to the contracted clot, and 3 μL of tPA solution was added with a single dispensing of the pipettor. The tPA solutions were made from a stock solution prepared according to manufacturer instructions using 0.15 M sodium chloride, pH 7.4.
In one embodiment, the dependencies of the T2MR signals during clotting of re-calcified citrated blood samples from healthy donors initiated by adding 3 U/ml thrombin was measured. Thrombin activates platelets and cleaves fibrinogen to form a three-dimensional fibrin network stabilized by factor XIIIa. Addition of thrombin led to rapid formation of a gelatinous meshwork that filled the sample volume accompanied by a small, rapid decrease in the T2MR signal over tens of seconds due to the sample transitioning from a liquid to gel state. In the initial gel state, only one relaxation rate was observed (FIG. 2, part a), reflecting uniform distribution of erythrocytes and other blood components. Approximately four minutes after thrombin addition, the T2MR signal split into two peaks representing distinct water populations in slow exchange with each other. […]
We then assessed the sensitivity of the T2MR platform to fibrinolysis by adding tissue-type plasminogen activator (tPA) to the clotted samples 30 minutes after thrombin.
The compartment generating the signal in FIG. 2, part b, at 300 ms that dropped to 200 ms was assessed by testing two conditions: (1) re-calcified citrated whole blood activated with thrombin to form a contracted clot and (2) re-calcified citrated whole blood activated with thrombin followed by addition of tPA. After incubation, samples were analyzed before and after mixing with a pipette to re-suspend unbound erythrocytes. […]

[7] = ellagic acid with CaCl2, varying ReoPro concentrations
[8] = tPA added 30 minutes after thrombin

Molecule	TEG MA [1]	DiffT2 [2]	effect on % deltaT2 [3, 7]	effect on T2MR measured clot time [3, 7]	platelet activity measurement (FIG. 27) ([3]; intrinsic activator, 5 μg/mL and 10 μg/mL ReoPro)	change in T2 value of the serum peak (third phase) [4]	clotting time curves (% deltaT2) [5]	200-300 ms signal after mixing ([6]; clotted with thrombin then lysed with tPA, mixed with a pipette)	T2 value of the upper peak after tPA addition [6, 8]	third peak at ~100 ms after tPA addition [6, 8]	T2 value of the middle peak after tPA addition ([6]; tPA added 30 minutes after thrombin, decreased from 250)
B1	less than 40	< 100 ms	no effect	no effect	inhibition of platelet activity						
B2						larger change	appear to overlay	disappeared altogether	decreased rapidly	persisted	175 ms
